Reference: patent US7667021 (dated 2010)

Assays:
IGFR1 [1] = target: IGFR1 (human); assay: SPR, 25C
IGFR1 [2] = target: IGFR1 (human); assay: SPR, 37C

IGFR1 (human), sequence (B1B5Y2 whole entry): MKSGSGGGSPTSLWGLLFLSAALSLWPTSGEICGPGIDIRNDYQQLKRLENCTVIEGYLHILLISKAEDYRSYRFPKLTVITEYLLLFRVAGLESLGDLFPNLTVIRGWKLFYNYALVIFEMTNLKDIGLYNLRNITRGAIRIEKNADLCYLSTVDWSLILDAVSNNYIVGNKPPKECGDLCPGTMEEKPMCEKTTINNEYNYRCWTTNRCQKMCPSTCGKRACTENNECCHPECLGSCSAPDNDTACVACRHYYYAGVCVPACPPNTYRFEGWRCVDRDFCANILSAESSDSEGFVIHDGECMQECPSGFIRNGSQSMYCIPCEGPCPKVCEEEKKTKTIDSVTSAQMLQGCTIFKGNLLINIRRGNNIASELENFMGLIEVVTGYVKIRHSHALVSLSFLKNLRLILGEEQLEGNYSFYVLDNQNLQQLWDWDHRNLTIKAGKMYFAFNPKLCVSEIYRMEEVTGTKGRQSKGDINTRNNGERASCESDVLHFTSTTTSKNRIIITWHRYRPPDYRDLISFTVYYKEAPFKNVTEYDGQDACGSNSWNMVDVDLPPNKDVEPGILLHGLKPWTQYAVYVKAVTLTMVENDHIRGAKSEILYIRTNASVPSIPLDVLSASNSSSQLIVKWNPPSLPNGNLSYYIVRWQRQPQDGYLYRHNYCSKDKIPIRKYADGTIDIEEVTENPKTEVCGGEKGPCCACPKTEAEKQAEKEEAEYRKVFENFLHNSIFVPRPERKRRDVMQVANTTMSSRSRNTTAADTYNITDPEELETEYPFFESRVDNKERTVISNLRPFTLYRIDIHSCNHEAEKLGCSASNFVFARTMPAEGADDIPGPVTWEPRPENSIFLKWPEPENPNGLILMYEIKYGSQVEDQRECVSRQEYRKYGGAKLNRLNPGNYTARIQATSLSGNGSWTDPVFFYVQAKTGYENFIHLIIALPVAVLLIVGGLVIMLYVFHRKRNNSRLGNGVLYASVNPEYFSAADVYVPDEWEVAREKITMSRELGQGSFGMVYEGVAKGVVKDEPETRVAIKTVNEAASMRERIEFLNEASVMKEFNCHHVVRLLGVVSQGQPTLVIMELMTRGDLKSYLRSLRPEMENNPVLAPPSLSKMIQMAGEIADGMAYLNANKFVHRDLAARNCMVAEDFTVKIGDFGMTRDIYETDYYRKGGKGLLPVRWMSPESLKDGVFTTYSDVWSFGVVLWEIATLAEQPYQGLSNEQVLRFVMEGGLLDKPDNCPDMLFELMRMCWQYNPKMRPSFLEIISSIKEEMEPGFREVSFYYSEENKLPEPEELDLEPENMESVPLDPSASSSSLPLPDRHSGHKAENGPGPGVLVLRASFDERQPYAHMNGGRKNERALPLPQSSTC

B1: 1H3 (antibody, V domains shown)
VH: EVQLVQSGGGLVLPGGSLRLSCAGSGFTFSNYAMHWIRQAPGKGLEWVSAIGAGGDTYYADSVKGRFTISRDNAKDSLYLQMNSLRAEDMAVYYCARGRHRNWYYYNKDYWGQGTLVTVSS
VL: EIVLTQSPATLSLSPGERATLSCRASQSVSSFLAWYQQKPGQAPRLLIYDASNRAPGIPARFSGSGSGTDFTLTISSLEPEDFAVYYCQQRSNWPRWTFGQGTKVEIKR
**Q.** For B1, which Kd (IGFR1 [1]) is on record?
**A.** 0.86 nM

B2: 19D12 (antibody, V domains shown)
VH: EVQLVQSGGGLVHPGGSLRLSCAASGFTFSSFAMHWVRQAPGKGLEWISVIDTRGATYYADSVKGRFTISRDNAKNSLYLQMNSLRAEDMAVYYCARLGNFYYGMDVWGQGTTVTVSS
VL: EIVLTQVPDFQSVTPKEKVTITCRASQSIGSSLHWYQQKPDQSPKLLIKYASQSLSGVPSRFSGSGSGTDFTLTINSLEAEDAAAYYCHQSSRLPHTFGGGTKVEIKR
**Q.** For B2, which Kd (IGFR1 [1]) is on record?
**A.** 0.0592 nM

**Q.** What about the Kd (IGFR1 [2]) of the same binder?
**A.** 0.0722 nM

B3: 15H12 (antibody, V domains shown)
VH: EVQLVQSGGGLVHPGGSLRLSCAASGFTFSSFAMHWVRQAPGKGLEWISVIDTRGATYYADSVKGRFTISRDNAKNSLYLQMNSLRAEDMAVYYCARLGNFYYGMDVWGQGTTVTVSS
VL: EIVLTQVPDFQSVTPKEKVTITCRASQSIGSSLHWYQQKPDQSPKLLIKYASQSLSGVPSRFSGSGSGTDFTLTINSLEAEDAAAYYCHQSSRLPHTFGGGTKVEIKR
**Q.** For B3, which Kd (IGFR1 [1]) is on record?
**A.** 0.0448 nM

**Q.** And the Kd (IGFR1 [2])?
**A.** 0.0557 nM
